Reference: article PMC3386239

Target: Skp1 (mouse, endogenous in RAW264.7 cells) (mouse (endogenous in RAW264.7)) (UniProt Q9WTX5)
Chain of UniProt Q9WTX5 (Q9WTX5 whole entry): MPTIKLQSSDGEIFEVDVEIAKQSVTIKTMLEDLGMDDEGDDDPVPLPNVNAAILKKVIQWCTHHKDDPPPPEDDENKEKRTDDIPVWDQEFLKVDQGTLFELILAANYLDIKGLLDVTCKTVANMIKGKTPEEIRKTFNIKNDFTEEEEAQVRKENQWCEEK

| Substance | NFκB-driven luciferase in RAW264.7 cells infected with ΔgogB complemented with GogBΔ264–352 (F-box motif deleted), fold of wild type Salmonella (fold of wild type) | NFκB-driven luciferase in RAW264.7 cells infected with ΔgogB complemented with GogB-NT (C-terminal domain deleted), fold of wild type Salmonella (fold of wild type) |
| --- | --- | --- |
| GogB Δ264–352 (in-frame deletion of the F-box-like domain), HA-tagged, delivered by the T3SS (natural protein) | 4 |  |
| GogB-NT (amino acids 1-253, N-terminal LRR domain), HA-tagged, delivered by the T3SS (domain or fragment) |  | 4 |
